Laboratory results from publication PMC9482650, “Quantitative fragmentomics allow affinity mapping of interactomes” (Nature Communications, 2022).

T1: APBA3_2, O96018
T1 sequence (O96018 480-570, limits assumed, looked up): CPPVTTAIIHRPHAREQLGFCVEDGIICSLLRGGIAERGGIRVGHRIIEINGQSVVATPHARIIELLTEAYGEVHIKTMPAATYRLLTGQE

T2: GIPC1, O14908
T2 sequence (O14908 128-223, limits assumed, looked up): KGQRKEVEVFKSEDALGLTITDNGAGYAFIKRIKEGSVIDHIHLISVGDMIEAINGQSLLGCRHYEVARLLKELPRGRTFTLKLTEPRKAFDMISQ

T3: MAGI2_1, Q86UL8
T3 sequence (Q86UL8 12-111, limits assumed, looked up): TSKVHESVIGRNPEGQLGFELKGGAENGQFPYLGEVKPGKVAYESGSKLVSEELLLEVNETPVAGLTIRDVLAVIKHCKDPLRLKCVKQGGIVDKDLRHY

T4: MPDZ_11, O75970
T4 sequence (O75970 1720-1817, limits assumed, looked up): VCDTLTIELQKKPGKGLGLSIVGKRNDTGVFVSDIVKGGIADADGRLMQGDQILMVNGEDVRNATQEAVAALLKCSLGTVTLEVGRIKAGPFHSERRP

T5: NHERF3_2, Q5T2W1
T5 sequence (Q5T2W1 129-225, limits assumed, looked up): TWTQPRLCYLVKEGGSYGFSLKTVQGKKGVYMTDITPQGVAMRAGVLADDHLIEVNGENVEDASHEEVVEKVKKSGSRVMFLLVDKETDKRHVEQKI

T6: PARD6G, Q9BYG4
T6 sequence (Q9BYG4 153-261, limits assumed, looked up): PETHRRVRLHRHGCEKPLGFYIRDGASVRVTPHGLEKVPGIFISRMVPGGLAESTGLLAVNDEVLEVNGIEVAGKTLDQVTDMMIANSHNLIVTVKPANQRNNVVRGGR

T7: PDZD2_3, O15018
T7 sequence (O15018 581-682, limits assumed, looked up): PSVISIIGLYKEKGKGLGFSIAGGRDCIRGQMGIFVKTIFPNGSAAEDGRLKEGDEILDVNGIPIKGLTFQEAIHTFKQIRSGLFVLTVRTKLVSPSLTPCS

T8: PDZD2_6, O15018
T8 sequence (O15018 2745-2839, limits assumed, looked up): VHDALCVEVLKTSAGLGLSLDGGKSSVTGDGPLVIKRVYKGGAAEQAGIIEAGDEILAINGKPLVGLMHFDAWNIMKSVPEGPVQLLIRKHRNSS

T9: PDZD7_1, Q9H5P4
T9 sequence (Q9H5P4 81-178, limits assumed, looked up): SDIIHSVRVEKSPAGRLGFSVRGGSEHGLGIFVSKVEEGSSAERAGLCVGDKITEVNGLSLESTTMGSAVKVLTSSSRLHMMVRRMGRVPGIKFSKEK

T10: PREX2_2, Q70Z35
T10 sequence (Q70Z35 672-764, limits assumed, looked up): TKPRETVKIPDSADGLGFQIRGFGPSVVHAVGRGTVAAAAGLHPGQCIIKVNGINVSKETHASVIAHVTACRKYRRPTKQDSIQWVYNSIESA

T11: SHROOM3, Q8TF72
T11 sequence (Q8TF72 20-120, limits assumed, looked up): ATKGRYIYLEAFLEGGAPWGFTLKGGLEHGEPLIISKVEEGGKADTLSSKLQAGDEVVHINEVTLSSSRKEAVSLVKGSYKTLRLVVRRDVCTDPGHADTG

T12: USH1C_2, Q9Y6N9
T12 sequence (Q9Y6N9 206-303, limits assumed, looked up): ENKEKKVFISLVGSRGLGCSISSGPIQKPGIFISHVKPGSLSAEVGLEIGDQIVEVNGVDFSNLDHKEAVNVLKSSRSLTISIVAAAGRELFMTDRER


These binders were tested against T1, APBA3_2, O96018 (assay: holdup assay). Conditions: plain residues with an end cap or a label only (N-terminal biotin on a linker: ttds).
Design: key: below the threshold = too weak to quantify, mostly under pKd 3.1 to 4

Binder	pKd
SSIDLWETAL [SLC15A5, A6NIM6]	below the threshold

Each binder was assayed against CARD14, Q9BXL6 (assay: holdup assay). Conditions: plain residues with an end cap or a label only (N-terminal biotin on a linker: ttds).
Chain of CARD14, Q9BXL6 (Q9BXL6 558-663): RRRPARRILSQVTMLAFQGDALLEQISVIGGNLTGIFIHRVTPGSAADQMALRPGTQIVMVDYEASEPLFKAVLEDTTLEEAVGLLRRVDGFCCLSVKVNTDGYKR
Design: key: below the threshold = too weak to quantify, mostly under pKd 3.1 to 4

Binder	pKd
SSIDLWETAL [SLC15A5, A6NIM6]	below the threshold

These binders were tested against DLG5_2, Q8TDM6 (assay: holdup assay). Conditions: plain residues with an end cap or a label only (N-terminal biotin on a linker: ttds).
Chain of DLG5_2, Q8TDM6 (Q8TDM6 714-800): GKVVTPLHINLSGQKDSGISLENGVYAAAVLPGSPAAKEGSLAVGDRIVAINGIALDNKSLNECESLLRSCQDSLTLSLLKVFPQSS
Design: key: below the threshold = too weak to quantify, mostly under pKd 3.1 to 4

Binder	pKd
SSIDLWETAL [SLC15A5, A6NIM6]	below the threshold

What follows are binders tested against T2, GIPC1, O14908 (assay: holdup assay). Conditions: plain residues with an end cap or a label only (N-terminal biotin on a linker: ttds).
Design: key: below the threshold = too weak to quantify, mostly under pKd 3.1 to 4

Binder	pKd
SSIDLWETAL [SLC15A5, A6NIM6]	below the threshold

The binders below were run against LIMK1, P53667 (assay: holdup assay). Conditions: plain residues with an end cap or a label only (N-terminal biotin on a linker: ttds).
Chain of LIMK1, P53667 (P53667 155-268): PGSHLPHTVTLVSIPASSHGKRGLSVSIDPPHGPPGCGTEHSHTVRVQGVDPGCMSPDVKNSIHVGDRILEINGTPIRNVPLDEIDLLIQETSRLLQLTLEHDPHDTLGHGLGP
Design: key: below the threshold = too weak to quantify, mostly under pKd 3.1 to 4

Binder	pKd
SSIDLWETAL [SLC15A5, A6NIM6]	below the threshold

What follows are binders tested against MAGI1_5, Q96QZ7 (assay: holdup assay). Conditions: plain residues with an end cap or a label only (N-terminal biotin on a linker: ttds).
Chain of MAGI1_5, Q96QZ7 (Q96QZ7 986-1098): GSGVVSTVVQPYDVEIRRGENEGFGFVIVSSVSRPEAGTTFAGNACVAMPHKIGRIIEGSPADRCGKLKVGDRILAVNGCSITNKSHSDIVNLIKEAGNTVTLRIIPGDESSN
Design: key: below the threshold = too weak to quantify, mostly under pKd 3.1 to 4

Binder	pKd
SSIDLWETAL [SLC15A5, A6NIM6]	5.82

What follows are binders tested against T3, MAGI2_1, Q86UL8 (assay: holdup assay). Conditions: plain residues with an end cap or a label only (N-terminal biotin on a linker: ttds).
Design: key: below the threshold = too weak to quantify, mostly under pKd 3.1 to 4

Binder	pKd
SSIDLWETAL [SLC15A5, A6NIM6]	below the threshold

The binders below were run against MAGI3_5, Q5TCQ9 (assay: holdup assay). Conditions: plain residues with an end cap or a label only (N-terminal biotin on a linker: ttds).
Chain of MAGI3_5, Q5TCQ9 (Q5TCQ9 847-941): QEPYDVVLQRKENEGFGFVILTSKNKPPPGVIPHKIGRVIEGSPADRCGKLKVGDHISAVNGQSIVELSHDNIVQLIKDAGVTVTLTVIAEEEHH
Design: key: below the threshold = too weak to quantify, mostly under pKd 3.1 to 4

Binder	pKd
SSIDLWETAL [SLC15A5, A6NIM6]	5.57

These binders were tested against MAGI3_6, Q5TCQ9 (assay: holdup assay). Conditions: plain residues with an end cap or a label only (N-terminal biotin on a linker: ttds).
Chain of MAGI3_6, Q5TCQ9 (Q5TCQ9 1014-1103): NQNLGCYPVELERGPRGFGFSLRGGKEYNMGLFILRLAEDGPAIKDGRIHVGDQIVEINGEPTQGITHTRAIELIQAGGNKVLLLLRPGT
Design: key: below the threshold = too weak to quantify, mostly under pKd 3.1 to 4

Binder	pKd
SSIDLWETAL [SLC15A5, A6NIM6]	4.89

What follows are binders tested against T4, MPDZ_11, O75970 (assay: holdup assay). Conditions: plain residues with an end cap or a label only (N-terminal biotin on a linker: ttds).
Design: key: below the threshold = too weak to quantify, mostly under pKd 3.1 to 4

Binder	pKd
SSIDLWETAL [SLC15A5, A6NIM6]	below the threshold

These binders were tested against T5, NHERF3_2, Q5T2W1 (assay: holdup assay). Conditions: plain residues with an end cap or a label only (N-terminal biotin on a linker: ttds).
Design: key: below the threshold = too weak to quantify, mostly under pKd 3.1 to 4

Binder	pKd
SSIDLWETAL [SLC15A5, A6NIM6]	below the threshold

These binders were tested against O00233 (assay: holdup assay). Conditions: plain residues with an end cap or a label only (N-terminal biotin on a linker: ttds).
Design: key: below the threshold = too weak to quantify, mostly under pKd 3.1 to 4

Binder	pKd
SSIDLWETAL [SLC15A5, A6NIM6]	below the threshold

What follows are binders tested against PARD3_1, Q8TEW0 (assay: holdup assay). Conditions: plain residues with an end cap or a label only (N-terminal biotin on a linker: ttds).
Chain of PARD3_1, Q8TEW0 (Q8TEW0 264-372): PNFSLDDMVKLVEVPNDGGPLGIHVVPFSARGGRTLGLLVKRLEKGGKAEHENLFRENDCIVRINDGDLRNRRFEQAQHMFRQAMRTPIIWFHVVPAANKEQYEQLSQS
Design: key: below the threshold = too weak to quantify, mostly under pKd 3.1 to 4

Binder	pKd
SSIDLWETAL [SLC15A5, A6NIM6]	below the threshold

These binders were tested against T6, PARD6G, Q9BYG4 (assay: holdup assay). Conditions: plain residues with an end cap or a label only (N-terminal biotin on a linker: ttds).
Design: key: below the threshold = too weak to quantify, mostly under pKd 3.1 to 4

Binder	pKd
SSIDLWETAL [SLC15A5, A6NIM6]	below the threshold

These binders were tested against T7, PDZD2_3, O15018 (assay: holdup assay). Conditions: plain residues with an end cap or a label only (N-terminal biotin on a linker: ttds).
Design: key: below the threshold = too weak to quantify, mostly under pKd 3.1 to 4

Binder	pKd
SSIDLWETAL [SLC15A5, A6NIM6]	5.1

What follows are binders tested against T8, PDZD2_6, O15018 (assay: holdup assay). Conditions: plain residues with an end cap or a label only (N-terminal biotin on a linker: ttds).
Design: key: below the threshold = too weak to quantify, mostly under pKd 3.1 to 4

Binder	pKd
SSIDLWETAL [SLC15A5, A6NIM6]	below the threshold

Each binder was assayed against T9, PDZD7_1, Q9H5P4 (assay: holdup assay). Conditions: plain residues with an end cap or a label only (N-terminal biotin on a linker: ttds).
Design: key: below the threshold = too weak to quantify, mostly under pKd 3.1 to 4

Binder	pKd
SSIDLWETAL [SLC15A5, A6NIM6]	4.95

What follows are binders tested against PDZD9, Q8IXQ8 (assay: holdup assay). Conditions: plain residues with an end cap or a label only (N-terminal biotin on a linker: ttds).
Chain of PDZD9, Q8IXQ8 (Q8IXQ8 23-120): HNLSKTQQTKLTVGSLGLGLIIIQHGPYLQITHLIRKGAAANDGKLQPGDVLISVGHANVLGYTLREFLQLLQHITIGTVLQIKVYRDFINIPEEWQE
Design: key: below the threshold = too weak to quantify, mostly under pKd 3.1 to 4

Binder	pKd
SSIDLWETAL [SLC15A5, A6NIM6]	below the threshold

These binders were tested against T10, PREX2_2, Q70Z35 (assay: holdup assay). Conditions: plain residues with an end cap or a label only (N-terminal biotin on a linker: ttds).
Design: key: below the threshold = too weak to quantify, mostly under pKd 3.1 to 4

Binder	pKd
SSIDLWETAL [SLC15A5, A6NIM6]	below the threshold

Each binder was assayed against Q8TB45 (assay: holdup assay). Conditions: plain residues with an end cap or a label only (N-terminal biotin on a linker: ttds).
Design: key: below the threshold = too weak to quantify, mostly under pKd 3.1 to 4

Binder	pKd
SSIDLWETAL [SLC15A5, A6NIM6]	below the threshold

What follows are binders tested against Q96FS4 (assay: holdup assay). Conditions: plain residues with an end cap or a label only (N-terminal biotin on a linker: ttds).
Design: key: below the threshold = too weak to quantify, mostly under pKd 3.1 to 4

Binder	pKd
SSIDLWETAL [SLC15A5, A6NIM6]	below the threshold

Each binder was assayed against Q96JY6 (assay: holdup assay). Conditions: plain residues with an end cap or a label only (N-terminal biotin on a linker: ttds).
Design: key: below the threshold = too weak to quantify, mostly under pKd 3.1 to 4

Binder	pKd
SSIDLWETAL [SLC15A5, A6NIM6]	below the threshold

The binders below were run against Q9NPB6 (assay: holdup assay). Conditions: plain residues with an end cap or a label only (N-terminal biotin on a linker: ttds).
Design: key: below the threshold = too weak to quantify, mostly under pKd 3.1 to 4

Binder	pKd
SSIDLWETAL [SLC15A5, A6NIM6]	below the threshold

The binders below were run against SCRIB_4, Q14160 (assay: holdup assay). Conditions: plain residues with an end cap or a label only (N-terminal biotin on a linker: ttds).
Chain of SCRIB_4, Q14160 (Q14160 1095-1204): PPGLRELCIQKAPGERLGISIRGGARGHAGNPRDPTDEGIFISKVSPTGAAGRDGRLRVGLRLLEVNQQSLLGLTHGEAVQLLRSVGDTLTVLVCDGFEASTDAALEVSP
Design: key: below the threshold = too weak to quantify, mostly under pKd 3.1 to 4

Binder	pKd
SSIDLWETAL [SLC15A5, A6NIM6]	4.97

Each binder was assayed against T11, SHROOM3, Q8TF72 (assay: holdup assay). Conditions: plain residues with an end cap or a label only (N-terminal biotin on a linker: ttds).
Design: key: below the threshold = too weak to quantify, mostly under pKd 3.1 to 4

Binder	pKd
SSIDLWETAL [SLC15A5, A6NIM6]	4.81

The binders below were run against T12, USH1C_2, Q9Y6N9 (assay: holdup assay). Conditions: plain residues with an end cap or a label only (N-terminal biotin on a linker: ttds).
Design: key: below the threshold = too weak to quantify, mostly under pKd 3.1 to 4

Binder	pKd
SSIDLWETAL [SLC15A5, A6NIM6]	below the threshold
